{"source": "patent US6531296B1", "about": "“Nuclear tyrosine kinase Rak” (The University of North Carolina at Chapel Hill, priority 1995, dated 2003)", "molecules": {"B1": {"name": "Rak with amino acids 1-110 deleted: Rak lacking the unique N-terminal region and the SH3 domain (protein, UniProt P42685 111-505, looked up, fragment)", "chain": "LQAEPWFFGAIGRSDAEKQLLYSENKTGSFLIRESESQKGEFSLSVLDGAVVKHYRIKRLDEGGFFLTRRRIFSTLNEFVSHYTKTSDGLCVKLGKPCLKIQVPAPFDLSYKTVDQWEIDRNSIQLLKRLGSGQFGEVWEGLWNNTTPVAVKTLKPGSMDPNDFLREAQIMKNLRHPKLIQLYAVCTLEDPIYIITELMRHGSLQEYLQNDTGSKIHLTQQVDMAAQVASGMAYLESRNYIHRDLAARNVLVGEHNIYKVADFGLARVFKVDNEDIYESRHEIKLPVKWTAPEAIRSNKFSIKSDVWSFGILLYEIITYGKMPYSGMTGAQVIQMLAQNYRLPQPSNCPQQFYNIMLECWNAEPKERPTFETLRWKLEDYFETDSSYSDANNFIR"}, "B2": {"name": "Rak with amino acids 1-46 deleted: Rak lacking the unique N-terminal region (LPCLSTE sequence removed) (protein, UniProt P42685 47-505, looked up, fragment)", "chain": "FVALFDYQARTAEDLSFRAGDKLQVLDTLHEGWWFARHLEKRRDGSSQQLQGYIPSNYVAEDRSLQAEPWFFGAIGRSDAEKQLLYSENKTGSFLIRESESQKGEFSLSVLDGAVVKHYRIKRLDEGGFFLTRRRIFSTLNEFVSHYTKTSDGLCVKLGKPCLKIQVPAPFDLSYKTVDQWEIDRNSIQLLKRLGSGQFGEVWEGLWNNTTPVAVKTLKPGSMDPNDFLREAQIMKNLRHPKLIQLYAVCTLEDPIYIITELMRHGSLQEYLQNDTGSKIHLTQQVDMAAQVASGMAYLESRNYIHRDLAARNVLVGEHNIYKVADFGLARVFKVDNEDIYESRHEIKLPVKWTAPEAIRSNKFSIKSDVWSFGILLYEIITYGKMPYSGMTGAQVIQMLAQNYRLPQPSNCPQQFYNIMLECWNAEPKERPTFETLRWKLEDYFETDSSYSDANNFIR"}, "B3": {"name": "RAKΔ86:GST: RakNT GST fusion protein with amino acids 86-110 (CDC2 binding site) deleted (protein, UniProt P42685 1-85, looked up, fragment)", "chain": "MSNICQRLWEYLEPYLPCLSTEADKSTVIENPGALCSPQSQRHGHYFVALFDYQARTAEDLSFRAGDKLQVLDTLHEGWWFARHL", "modifications": "GST fusion"}, "B4": {"name": "full-length Rak: in vitro translated full-length Rak protein (SEQ ID NO:2) (protein)", "chain": "MSNICQRLWEYLEPYLPCLSTEADKSTVIENPGALCSPQSQRHGHYFVALFDYHAPTAEELSFRAGDKLQVLDTLHEGWWFARHLEKRRDGSSQQLQGYIPSNYVAEDRSLQAEAWFFGAIRRSDAEKQLLYSENKTGSFLIRESESQKGEFSLSVLDGAVVKHYRIKRLDEGGFFLTRRRIFSTLNEFVSHYTKTSDGLCVKLGKPCLKIQVPAPFDLSYKTVDQWEIDRNSIQLLKRLGSGQFGEVWEGLWNNTTPVAVKTLKPGSMDPNDFLREAQIMKNLRHPKLIQLYAVCTLEDPIYIITELMRHGSLQEYLQNDTGSKIHLTQQVDMAAQVASGMAYLESRNYIHRDLAARNVLVGEHNIYKVADFGLARVFKVDNEDIYESRHEIKLPVKWTAPEAIRSNKFSIKSDVWSFGILLYEIITYGKMPYSGMTGAQVIQMLAQNYRLPQPSNCPQQFYNIMLECWNAEPKERPTFETLRWKLEDYFETDSSYSDANNFIR"}, "B5": {"name": "Rak (amino acids 1-152): in vitro translated amino-terminal fragment of Rak with unique amino-terminal region and SH3 domain (protein, UniProt P42685 1-152, looked up, fragment)", "chain": "MSNICQRLWEYLEPYLPCLSTEADKSTVIENPGALCSPQSQRHGHYFVALFDYQARTAEDLSFRAGDKLQVLDTLHEGWWFARHLEKRRDGSSQQLQGYIPSNYVAEDRSLQAEPWFFGAIGRSDAEKQLLYSENKTGSFLIRESESQKGEF"}}, "key": {"[1]": {"biological_target": "T1, RbABC (Rb amino acids 379-928, A/B pocket and carboxy-terminus) (Homo sapiens, UniProt P06400)", "T1 construct": "Rb fusion proteins encoding amino acids 379-928 (RbABC); made in house; host or cells: pGEX-4T plasmid", "T1 sequence (P06400 379-928)": "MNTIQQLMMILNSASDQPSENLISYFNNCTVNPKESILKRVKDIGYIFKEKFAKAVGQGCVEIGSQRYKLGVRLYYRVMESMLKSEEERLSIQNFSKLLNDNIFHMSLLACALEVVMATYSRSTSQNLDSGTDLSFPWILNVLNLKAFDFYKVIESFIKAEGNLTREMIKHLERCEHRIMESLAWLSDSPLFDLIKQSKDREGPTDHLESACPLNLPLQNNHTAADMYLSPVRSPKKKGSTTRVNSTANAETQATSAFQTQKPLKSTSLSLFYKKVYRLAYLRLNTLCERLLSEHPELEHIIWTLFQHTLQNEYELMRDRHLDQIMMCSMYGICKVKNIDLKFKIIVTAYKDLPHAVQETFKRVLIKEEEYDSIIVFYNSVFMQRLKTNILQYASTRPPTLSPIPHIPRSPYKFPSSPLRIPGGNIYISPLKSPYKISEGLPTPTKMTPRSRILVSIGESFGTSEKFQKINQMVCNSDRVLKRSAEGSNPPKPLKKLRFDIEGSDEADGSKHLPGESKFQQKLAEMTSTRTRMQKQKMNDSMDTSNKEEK", "assay": "Rb in vitro binding assay, GST-RbABC", "settings": "for Rb binding of Rak deletion forms: Rb fusion protein not specified", "experimental": "(§1) Affinity Precipitations. DNA fragments encoding the amino terminal region of Rak were prepared using the polymerase chain reaction with Pyrococcus furiosus DNA polymerase (Stratagene), and cloned into the pGEX-4T plasmid (Pharmacia). Rb fusion proteins encoding amino acids 379-928 (RbABC, containing the A/B pocket region and the COOH-terminal domain) and 780-928 (RbC for COOH terminal domain only), were prepared similarly. The GST fusion proteins were induced and purified according to the manufacturer's instructions, and were analyzed by SDS-PAGE to ensure that an equal amount of protein was used for the affinity precipitation procedure.\nThe same procedure was followed for Rb in vitro binding assays, except that the Rb-GST fusion proteins were incubated in the in vitro translated forms of Rak in NP-40 buffer containing 0.5% fraction V bovine serum albumin (Boehringer Mannheim). After three washes with the same buffer, bound proteins were analyzed by SDS-PAGE and detected by autoradiography. Rak was in vitro translated using the TnT-coupled transcription/translation system (Promega) with 2 ug of the pAlt-Rak plasmid. The Rak (1-152) construct was prepared by digesting the pAlt-Rak plasmid with EcoRI to obtain the 5′ EcoRI fragment of Rak.\nAn in vitro binding reaction was then used to further identify the essential components for the Rak-Rb interaction. In vitro translated Rak was incubated with two Rb-GST fusion proteins, where one encoded amino acids 379-928, spanning the A/B pocket and carboxy-terminus (RbABC), while the other fusion protein encoded amino acids 780-928, and represented only the carboxy-terminus (RbC). […] As a control, the Src protein was in vitro translated and subjected to the same binding reaction, and no binding of Src to any portion of Rb was detected (data not shown)."}, "[2]": {"biological_target": "CDC2 (Homo sapiens, UniProt P06493)", "sequence (P06493 whole entry, the tested form may be a part)": "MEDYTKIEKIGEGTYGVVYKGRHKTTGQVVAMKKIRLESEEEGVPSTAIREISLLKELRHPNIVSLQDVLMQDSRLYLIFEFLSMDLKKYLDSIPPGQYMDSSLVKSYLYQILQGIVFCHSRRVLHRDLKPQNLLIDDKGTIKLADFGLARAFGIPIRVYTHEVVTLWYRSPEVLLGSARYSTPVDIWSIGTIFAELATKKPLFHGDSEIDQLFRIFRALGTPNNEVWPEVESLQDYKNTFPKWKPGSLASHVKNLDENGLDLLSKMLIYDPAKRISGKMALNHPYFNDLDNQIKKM", "assay": "In vitro kinase assay of immunoprecipitated CDC2 with Histone H1 as exogenous substrate", "type": "biochemical", "design": "incubated with immunoprecipitated CDC2; endogenous in cells", "experimental": "The 110 N-terminal amino acids of Rak were produced as a GST fusion protein (RAKNT:GST) and incubated with immunoprecipitated CDC2, and subjected to an in vitro kinase assay with Histone H1 added as an exogenous substrate, and analyzed by SDS-PAGE. […] This fusion protein was incubated with immunoprecipitated CDC2, and subjected to an in vitro kinase assay with Histone H1 added as an exogenous substrate, and analyzed by SDS-PAGE.\nThe CDC2 binding domain of RAK appears to be between amino acids 86-110. Since the binding of RAK to CDC2 is exceptionally strong, the biological function of this interaction was explored."}, "[3]": {"biological_target": "T2, Cdk4 (Homo sapiens, UniProt P11802)", "T2 construct": "endogenous in cells; host or cells: BT474", "T2 sequence (P11802 whole entry, the tested form may be a part)": "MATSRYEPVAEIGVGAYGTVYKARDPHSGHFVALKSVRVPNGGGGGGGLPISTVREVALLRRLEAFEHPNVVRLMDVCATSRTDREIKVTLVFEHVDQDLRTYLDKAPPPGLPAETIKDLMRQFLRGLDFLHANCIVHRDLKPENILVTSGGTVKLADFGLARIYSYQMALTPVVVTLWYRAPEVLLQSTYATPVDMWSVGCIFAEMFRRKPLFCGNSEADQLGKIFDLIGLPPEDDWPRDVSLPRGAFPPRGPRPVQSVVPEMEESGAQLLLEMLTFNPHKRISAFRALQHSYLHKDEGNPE", "assay": "Affinity precipitation from BT474 lysate with Rak N-terminal GST fusion protein", "type": "binding", "settings": "BT474 cell lysate", "experimental": "For affinity precipitations, 250 ug of cell lysate was pre-cleared once with 25 ul of glutathione-sepharose beads (Pharmacia) then once with 25 ul of the same beads containing 2 ug/ml Glutathione S-transferase. The lysate was then incubated with 25 ul of GST-RakNT bound to glutathione-sepharose, in a total volume of 500 ul of NP-40 lysis buffer, for 3 hours at 4° C. The beads were then washed three times in NP-40 Lysis Buffer and the bound proteins were eluted with SDS-PAGE sample loading buffer. pRb binding was assessed by Western blot analysis with the G3-245 antibody at 1 ug/ml.\nBecause the N-terminus is frequently responsible for protein-protein interactions in Src-related kinases, the proteins that bind to this region were characterized. The N-terminal 110 amino acids of Rak were expressed as a bacterial fusion protein with Glutathione S-transferase, and were incubated with cell lysates from BT474 breast cancer cells. In this assay, binding of RAK to the cyclin-dependent kinases Cdc2 and Cdk4 was detected, but binding to Cdk5, Cdk6, or Cdk7 was not detected (data not shown)."}, "[4]": {"biological_target": "T3, RbC (Rb amino acids 780-928, carboxy-terminus) (Homo sapiens, UniProt P06400)", "T3 construct": "the other fusion protein encoded amino acids 780-928; made in house; host or cells: pGEX-4T plasmid", "T3 sequence (P06400 780-928)": "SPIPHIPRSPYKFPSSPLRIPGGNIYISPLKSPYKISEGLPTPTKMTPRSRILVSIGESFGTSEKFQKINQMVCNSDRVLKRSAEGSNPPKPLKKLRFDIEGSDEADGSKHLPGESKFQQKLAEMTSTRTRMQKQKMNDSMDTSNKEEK", "assay": "Rb in vitro binding assay, GST-RbC", "settings": "in vitro translated protein", "experimental": "as §1\nThe same procedure was followed for Rb in vitro binding assays, except that the Rb-GST fusion proteins were incubated in the in vitro translated forms of Rak in NP-40 buffer containing 0.5% fraction V bovine serum albumin (Boehringer Mannheim). After three washes with the same buffer, bound proteins were analyzed by SDS-PAGE and detected by autoradiography. […]\nAn in vitro binding reaction was then used to further identify the essential components for the Rak-Rb interaction. […] As a control, the Src protein was in vitro translated and subjected to the same binding reaction, and no binding of Src to any portion of Rb was detected (data not shown)."}}}
{"molecule": "B1", "values": [{"measurement": "Rb binding of Rak deletion forms", "setting": "[1]", "result": "minimally detectable"}]}
{"molecule": "B2", "values": [{"measurement": "Rb binding of Rak deletion forms", "setting": "[1]", "result": "no change in Rb binding"}]}
{"molecule": "B3", "values": [{"measurement": "inhibition of CDC2 histone H1 phosphorylation activity", "setting": "[2]", "result": "greatly diminished CDC2 inhibitory activity"}, {"measurement": "binding to Cdk4", "setting": "[3]", "result": "did not affect binding"}]}
{"molecule": "B4", "values": [{"measurement": "binding to RbABC fusion protein", "setting": "[1]; in vitro translated protein, SDS-PAGE and autoradiography", "result": "bound efficiently"}, {"measurement": "binding to RbC protein, fold less than to RbABC", "setting": "[4]", "result": "approximately 5 fold"}]}
{"molecule": "B5", "values": [{"measurement": "less efficiency of binding to RbABC fusion protein", "setting": "[1]; compared with full-length Rak", "result": "approximately 30%"}, {"measurement": "binding to RbC protein", "setting": "[4]", "result": "no longer detectable"}]}
